Measurements reported in article PMC3411640, “Molecular Breeding of a Fungus Producing a Precursor Diterpene Suitable for Semi-Synthesis by Dissection of the Biosynthetic Machinery” (PLoS ONE, 2012).

Key:
[1] = test system: CC(=O)SCCNC(=O)CCNC(=O)[C@H](O)C(C)(C)COP(=O)(O)OP(=O)(O)OC[C@H]1O[C@@H](n2cnc3c(N)ncnc32)[C@H](O)[C@@H]1OP(=O)(O)O; assay: HPLC, Hanes-Woolf; format: biochemical, Diaporthe amygdali; details: 203 µM 14 (dideacetyl-FC A), 50 mM Tris-HCl pH 8.5, 35°C
[2] = test system: O=c1ccn([C@@H]2O[C@H](CO[P@@](=O)(O)O[P@@](=O)(O)O[C@H]3O[C@H](CO)[C@@H](O)[C@H](O)[C@H]3O)[C@@H](O)[C@H]2O)c(=O)[nH]1; assay: HPLC, Hanes-Woolf; format: biochemical, Diaporthe amygdali; details: 0.1 mM 9 (FC H aglycon), 50 mM MES pH 6.0, 30°C

Substance	Km [1]	kcat [1]	Km [2]	kcat [2]
acetyltransferase-2 (Orf12) (Diaporthe amygdali)	63 ± 6.6 µM	3.5×10^−3±0.17×10^−3 S^−1	–	–
glycosyltransferase (Orf6) (Diaporthe amygdali)	–	–	520 ± 46 µM	0.40±0.044 S^−1
